Holding throughout (test): cryo-EM structure
The target in assay [1] is ConSOSL.UFO soluble gp140 Env trimer, unmodified (GMP) (HIV-1 (group M consensus)).
Assay [2] deals with EDC cross-linked ConSOSL.UFO soluble gp140 Env trimer (GMP) (HIV-1 (group M consensus)).
Assay [3] concerns the target EDC cross-linked ConM SOSIP soluble gp140 Env trimer (GMP) (HIV-1 (group M consensus)).
Assay [4] concerns the target ConM SOSIP soluble gp140 Env trimer, unmodified (GMP) (HIV-1 (group M consensus)).

Results on 4 substances are retold here after article PMC10345191.

Broadly, the stoichiometry N is a count of units in the complex or per binding partner. In turn, “ConSOSL.UFO soluble gp140 Env trimer, unmodified (GMP) (complex)” had a stoichiometry N in assay [1] of 3.
For the substance “EDC cross-linked ConSOSL.UFO soluble gp140 Env trimer (GMP) (complex)”, the stoichiometry N in assay [2] is 3.
“EDC cross-linked ConM SOSIP soluble gp140 Env trimer (GMP) (complex)”: the stoichiometry N in assay [3] came to 3.
“ConM SOSIP soluble gp140 Env trimer, unmodified (GMP) (complex)” showed a stoichiometry N in assay [4] of 3.
